Measured values: patent US11898183B2, “Programmed microorganisms to attenuate a disease” (priority 2020, dated 2024)

System: pathway specific substrates
Assay: Enzyme functionality of pathway enzyme homologs and fusion constructs in lysed E. coli cell extracts, product by HPLC
Type: biochemical, E. coli BL21
Conditions: protein expressed in E. coli, lysed cell extract, pathway specific substrate, HPLC
Method: As per one of the possible implementations of the present disclosure, two proteins—cinnamate-4-hydroxylate (C4H) and 4-coumaroyl CoA-ligase (4CL) were expressed as one fusion protein. Also, other two proteins which were expressed as one fusion protein were hydroxycinnamoyl-CoA quinate hydroxycinnamoyltransferase (HCT) and p-coumaroyl quinate 3′-hydroxylase (HCTC3H). The fusion gene and the corresponding fusion protein was prepared using the following method. […] The enzyme fusion constructs were made for the selected genes (Table 5). Pathway genes and the fusion constructs were individually cloned in E. coli expression vector pET28+ under T7 promoter and transformed in E. coli BL21 cells. Recombinant bacterial cells were induced with IPTG and enzyme functionality was tested with pathway specific substrates (Table 5) using lysed E. coli cell extracts. HPLC analysis was carried out to quantify the product formation and in turn shortlisting of efficient enzymes for functional pathway assembly towards Etoposide in E. coli.
The E. coli transformants were grown overnight at 37° C. in 1 ml of M9 minimal media containing ampicillin (100 mg/1), in 96-well format. The next day, 150 μl of each culture was inoculated into 3 ml M9 minimal media containing ampicillin (100 mg/1), IPTG 0.1 mM in 24-well format, and incubated at 30° C. and 200 rpm for ˜20 hours. The following day, cells were spun down and pellets were resuspended in 100 μl of lysis buffer containing 10 mM Tris-HCl pH 8, 5 mM MgCl2, 1 mM CaCl2) and complete mini protease inhibitor EDTA-free (3 tablets/100 ml) (Hoffmann-La Roche, Basel, Switzerland) and frozen at −80° C. for at least 15 minutes to promote cell lysis. Pellets were thawed at room temperature and 50 μl of DNase mix (1 μl of 1.4 mg/ml DNase in H2O (˜80000 u/ml), 1.2 μl of MgCl2 500 mM and 47.8 μl of 4×PBS buffer solution) was added to each well. Plates were shaken at 500 rpm for 5 min at room temperature to allow degradation of genomic DNA. Plates were spun down at 4000 rpm for 30 min at 4° C. and six μl of the lysates were used in in vitro using appropriate substrates for enzymes as per Table 6. In each case, the resulting compounds were measured by HPLC. Results were analysed in comparison with the lysates expressing the corresponding controls (the empty plasmid). […]

Molecule | enzyme activity | enzyme activity (in words)
CCoAOMT Chamaecyparis formosensis: Caffeoyl CoA O-methyltransferase (CCoAOMT) from Chamaecyparis formosensis (protein, Depicts the nucleic acid sequence of Caffeoyl CoA O-methyltransferase (CCoAOMT) of Chamaecyparis formosensis) MATVEATKDSTQQVSRHQEVGHKSLLQSDALYQYILETSVYPREPEPMRELREITAKHPWNLMTTSADEGQFLHLLLKLINAKNTMEIGVYTGYSLLSTALALPDDGKILAMDINRENYELGLPVIQKAGVAHKIDFREGPALPVLDQMLENKEMHGSFDFIFVDADKDNYLNYHKRLIDLVKIGGVIGYDNTLWNGSVVAPPDAPMRKYVRYYRDFVIELNKALAADPRIEISQIPVGDGITLCRRII | 95% | 
OMT Sinopodophyllum hexandrum: O-methyltransferase 3 (OMT) from Sinopodophyllum hexandrum (protein, Depicts the nucleic acid sequence encoding O-methyltransferase 3 (OMT) of Sinopodophyllum hexandrum, O-methyltransferase 3 (OMT) from Sinopodophyllum hexandrum) MEMAPTMDLEIRNGNGYGDSGEELLAAQAHIYNHIFNFISSMALKCAVELNIPEILHNHQPKAVTLSELVQALQIPQAKSACLYRLLRILVHSGFFAITKIQSEGDEEGYLPTLSSKLLLKNHPMSMSPCLLGLVNPTMVAPMHFFSDWFKRSDDMTPFEATHGASLWKYFGETPHMAEIFNEAMGCETRLAMSVVLKECKGKLEGISSLVDVGGGTGNVGRAIAEAFPNVKCTVLDLPQVVGNLKGSNNLEFVSGDMFQFIPPADVVFLKWILHDWNDEECIKILKRCKEAIPSKEEGGKLIIIDMVVNDHNKGSYESTETQLFYDLTLMALLTGTERTETEWKKLFVAAGFTSYIISPVLGLKSIIEVFP | 99% | 
DIRPLR Linum usitatissimum: Bifunctional pinoresinol-lariciresinol reductase (DIRPLR) from Linum usitatissimum (protein, listed as Linum usitatissimum) MGRCRVLVVGGTGYIGKRIVKASIEHGHDTYVLKRPETGLDIEKFQLLLSFKKQGAHLVEASFSDHESLVRAVKLVDVVICTVSGAHSRSLLLQLKLVEAIKEAGNVKRFIPSEFGMDPARMGDALEPGRETFDLKMVVRKAIEDANIPHTYISANCFGGYFVGNLSQLGPLTPPSDKVTIYGDGNVKVVYMDEDDVATYTIMTIEDDRTLNKTMYFRPPENVITHRQLVETWEKLSGNQLQKTELSSQDFLALMEGKDVAEQIVIGHLYHIYYEGCLTNFDIDADQDQVEASSLYPEVEYTRMKDYLMIYL |  | desirable enzyme activity
2-ODD Nitrospira moscoviensis: 2-oxoglutarate/Fe(II)-dependent dioxygenase (2-ODD) from Nitrospira moscoviensis (protein, listed as Nitrospira moscoviensis) MVSNMAMGITEAVDRAVAALDVDRLHREYWEQNEFLVIRQFLPRAFVEEVLVPQAQGVKTELNRNYIPGHKKGGSVSYYTVRRRAPLFLDLYRSDSFRAFLDRLVDAKLLLCPENDPHSCALYYYTEPGDHIGFHYDTSYYKGARYTILMGLVDRSTQCKLVCELFKDHPTKAPQRLELITEPGDMVIFNGDKLWHAVTPLGEGEERIALTMEYVTNPEMGAFKRLYSNLKDSFAYFGLKTVFKQALAKKSS | 96% | 
CYP719 Cinnamomum micranthum: CYP719 from Cinnamomum micranthum (protein, Depicts the nucleic acid sequence encoding CYP719 of Cinnamomum micranthum) MEAIWTAVAIGIAAAVLMAFRGRQRQRLSRKPTQWPPGPTRLPLIGNMHQILLKGGDPFHVAINKLAQVYGPLMTVWFGTRQPTIIVSDHNLVWEVLVSKSADYAAREIPITLKPSLADFRTIVSSNAGPLWHSLRRGLQNGAIGPHSLSLQAPFQESDMAQMINNMIKEANLNGGVVKPFPHIRRAIIKLLARICFGCDFSDEEFDATMDFMVEEALRYSDDSRILDTFPPARFLPSVKRAVMQMEKVKLRLMECIGRPLDSPLPPTCYAHFLLSQSFPREVAIFSIFELFLLGVDSTGSTTMWGLGLLMQNQEAQQKLYQEIREHASCNEKGVVKVEELGKLEYLQAVAKETMRMKPIAPLAVPHQAARDTTLDGLHVAEGTTVLANLYALHYDPKVWDEPERFKPERFLESSKEFLGKRGQYSFLPFGAGMRACAGMEVGKLQLPFAICNLVNAFNWSNVVEKEAPKLIEGFSFILSMKTPLEARIVPRGI |  | highest enzyme activity
CCoAOMT Eleocharis dulcis: Caffeoyl CoA O-methyltransferase (CCoAOMT) from Eleocharis dulcis (protein, Depicts the nucleic acid sequence encoding Caffeoyl CoA O-methyltransferase (CCoAOMT)) MSTTTTTQTKTETQSQTGAQNGAEQQTRHSEVGHKSLLQSDALYQYILETSVYPREPECMKELRDITAKHPWNLMTTSADEGQFLNLLLKLIGAKKTMEIGVYTGYSLLATALAIPEDGTILAMDINRENYELGLPVIEKAGVAHKIDFREGPALPVLDQLIEDPANLGSFDFIFVDADKDNYLNYHKRLIELVKVGGVIGYDNTLWNGSVVLPADAPMRKYIRYYRDFVLELNKALAADPRIEISQLPVGDGITLCRRVK | 61% | 
2-ODD Nitrospira japonica: 2-oxoglutarate/Fe(II)-dependent dioxygenase (2-ODD) from Nitrospira japonica (protein, Depicts the nucleic acid sequence of 2-oxoglutarate/Fe(II)-dependent dioxygenase (2-ODD) of Nitrospira japonica, 2-oxoglutarate/Fe(II)-dependent dioxygenase (2-ODD) from Nitrospira japonica) MMGGAMTTQTLDTIAEAVDQAVARLDFDRLHREYWEQNEFLVIPQFLDRAMVEEWLVPQAQGVKGDLNRNYIPGHKKGGSVSYYTVMEKAPRFLDLYRSQVFIEFLSRLSHAKLRLCPDNDPHSCALYYYTEPGDHIGFHYDTSYYKGSRYTILMGLVDQSTHCKLVCELFKDDPVRPSKRLELITQPGDMVIFNGDKLWHAVTPLGPNEERIALTMEYVTNPDMGTFKRLYSNLKDSFAYFGLRAVFKRALSLPRR | 88% | 
CYP82D Panax ginseng: CYP82D from Panax ginseng (protein, Panax ginseng) METFLAQLYSTTTIAALFVLLVLYYFSPWTRINKKNVAPEAGGGWPIIGHLHLLGGSKLPHLVFGSMADKYGPIFTVRLGVQRSLVVSSWEMVKDIFTTNDVIVSGRPKFLAAKHLSYNYAMFGFSPYGSFWLELRKITSLQLLSNRRLELLKHVRVSEMEISMRQLYKLWSEKKNGSGRVLMDMKKWFGELNLNVTFRMVAGKRYFGGGAASNDEEARRCRRVVREFFRLLGVVVVADSLPFLRWLDLGGYERAMKETAREMDSIVSVWLEEHRIKSDSSGDDANMEQDFMDVMLSAVKNVDLCGFDAHTVIKATCMVIISSGTDTTTVELTWALCLLLNNRHVLKKAQEELDNVVGKQRRVKESDLNNLIYLQAIVKETLRLYPAGQLGGQREFSDDCTVGGYHVPKRTRLVVNLWKLHRDPRIWSDPTEFRPERFLERHKEIDVKGQHFELIPFGAGRRVCPGITFGLQMFHLVLASLLHGFDISTPSDAPVDMAEGAGLTNAKITPLEILIAPRLSPSLYE | around 93% | 
CYP71 Cinnamomum micranthum: CYP71 from Cinnamomum micranthum (protein, Depicts the nucleic acis sequence encoding CYP71 of Cinnamomum micranthum) MALLLSLLFFASALIFLLKLNGQRANKTDVPPSPPKLPLIGNLHQLGTLPHRSLRSLAGKYGPLMLLYLGRIPTLIVSSEEMAEQIMKTHDLIFASRPSITAAKELLYGCTDLAFASYGEYWRQVRKMCVLELLSIKRVNSFRSIMEEEVGLMIERISQSSSTGAAVNLAELFLSLTGGTIARAALGKKYEGEAEEGRNKYADLVKELHALLGAFSVGDYFPSLAWVDVVTGLHGKLKRNSRELDRFLDQVIEHHLMRPLDGCDVGEHTDLVDVMLQVQKDSNRDIHLTRDNIKAIILDMFSAGTDTTALTLEWVMAELAKHPNVMKKAQGEVRRVVDVKANISEEHLCQLNYMKSIIKETLRLHPPAPLLVPRESTTNVKIQNFHIPPKTRVFINAYAIGRDPTSWENPEEFLPERFANNSVDFKGQDFQFIPFGAGRRGCPGLSFAITSLELALANLLYWFDWELPQGVTEEDLDMSEALGITVHKKLPLYLVPKNHFS | 94% | 
SDH Juglans regia: Secoisolariciresinol dehydrogenase (SDH) from Juglans regia (protein, listed as Juglans regia) MNGTSSLLAPIAKRLAGKVALITGGASGIGESTARLFAEQGAKVIIADVQDELGFSVSQDKSINGAISYIHCDVTSESDVQNAVNTAVSKHGKLDIMFNTAGCTGQNKASILDHEQKDYKTVFDVNVLGSFLGAKHAAKVMIPVKRGTILFTASCVTESHGLASHSYTASKHAVVGLTKNLCVELGQYGIRVNCISPYGAATPLFLKGMGIDKKEKAEEILSSAANLKGPVLEAGDLAEAALFLASEESKYVSVLNLVVDGGYSATNVAFTETIQKFFT | 99% | 
